One data set concerns the target T1, PbAcE (Paenibacillus sp. R4, UniProt A0A452CSP2).
T1 construct: gene cloned in pET-28a (NdeI/XhoI), N-terminal His6 tag cut by thrombin, E. coli BL21(DE3); ~36 kDa monomer, hexamer 234 kDa; 1896 residues modelled in six chains; primers encode N-terminus MPNVDMP and C-terminus IEAYL; catalytic triad Ser185, Asp274, His303
Put plainly: p-nitrophenol release at […] nm, initial rates, double reciprocal plot. The conditions noted are these: 20 mM Tris-HCl, 150 mM NaCl, pH 7.4; free enzyme. The data set is classed as biochemical.

The target in data set [1] is cold-active acetyl xylan esterase (PbAcE) from Paenibacillus sp. R4 (Paenibacillus sp. R4). Put plainly: AUC; sedimentation velocity, 20°C, 0.5 mg/ml PbAcE, 20 mM Tris-HCl pH 8.0, 150 mM NaCl, 45,000 rpm, SEDFIT.
Substrate in the data set “purified protein”: CCCC(=O)Oc1ccc([N+](=O)[O-])cc1
Put plainly: purified protein. The data set is classed as biochemical, Paenibacillus sp. R4. As to conditions: 20 mM Tris-HCl, 150 mM NaCl, pH 7.4, free enzyme.

As usually defined, the Km is the concentration of substrate that gives half-maximal velocity. Turning to `CC(=O)Oc1ccc([N+](=O)[O-])cc1` [pNP-C2, p-nitrophenyl acetate], the Km entry on PbAcE was “initial kinetic studies were performed for pNP-C2 and pNP-C4”.
A word on the stoichiometry N: it is the number of molecules, sites or subunits per partner or assembly. As to “cold-active acetyl xylan esterase (PbAcE) from Paenibacillus sp. R4 (enzyme)”, the stoichiometry N in data set [1] was determined as 6.

B1: PbAcE (Paenibacillus sp. R4) (protein)
chain: MPNVDMPLSQLQDYKPELTNETDFDLFWDNAKALSNQKPLHAQVNLVQDYPLKSISIYDVVYDGADGTPIHGWYVTPKGEHQPGSLPVLVKYHGYSGNRGYPNELLQWASMGMAALAIDVRGQGGVTPDRAEYPQGGIPGWMTLGILDPASYYYKQVYLDCIRALDFVCSREEVDASRIAVYGGSQGGGLALAAAGLDSRPKLALPVFPFLCHFRRSVEIHASGPYVEIKNWFRRYDPEHRQEEQVYRTLSYFDGMNMASRIKARTLMAITLQDITCPPSTCFAAYNHLAGPKEVRLYHDYGHEGLPFHEEAMMRFIEAYL
notes: gene cloned in pET-28a (NdeI/XhoI), N-terminal His6 tag cut by thrombin, E. coli BL21(DE3); ~36 kDa monomer, hexamer 234 kDa; 1896 residues modelled in six chains; primers encode N-terminus MPNVDMP and C-terminus IEAYL; catalytic triad Ser185, Asp274, His303
The kcat is the number of substrate molecules converted per active site and unit of time at saturation. B1: in the data set “purified protein”, the Km worked out at 1230 ± 330 µM and the kcat was 0.19 ± 0.02 s⁻¹.

The values are drawn from article PMC6209228, “Crystal structure and functional characterization of a cold-active acetyl xylan esterase (PbAcE) from psychrophilic soil microbe Paenibacillus sp” (PLoS ONE, 2018).
